Reference: paper PMC5940361, “Human LINE-1 retrotransposition requires a metastable coiled coil and a positively charged N-terminus in L1ORF1p” (eLife, 2018)

B1: hL1ORF1p-cc (coiled coil domain of human L1ORF1p, GPHMS53-Y152) (domain or fragment)
chain: GPHMSELREDIQTKGKEVENFEKNLEECITRITNTEKCLKELMELKTKARELREECRSLRSRCDQLEERVSAAEDEINEIKREGKFREKRIKRNEQSLQEIWDY
notes: residues printed before S53 in the construct's description (GPHMS53-Y152); not from L1ORF1p; human LINE-1 ORF1 protein (L1ORF1p) of the L1.3 element, residues S53-Y152, amplified from a plasmid with the M121A/M125I/M128I triple mutation; The M of GPHM probably stands at position 52 in place of Y52 (the structure is described as residues 52-152); also called L1ORF1p coiled coil domain; coiled coil …
B2: hL1ORF1p-ΔNTR (human L1ORF1p without the NTR, GPHMS53-M338) (domain or fragment)
chain: GPHMSELREDIQTKGKEVENFEKNLEECITRITNTEKCLKELMELKTKARELREECRSLRSRCDQLEERVSAAEDEINEIKREGKFREKRIKRNEQSLQEIWDYVKRPNLRLIGVPESDVENGTKLENTLQDIIQENFPNLARQANVQIQEIQRTPQRYSSRRATPRHIIVRFTKVEMKEKMLRAAREKGRVTLKGKPIRLTADLSAETLQARREWGPIFNILKEKNFQPRISYPAKLSFISEGEIKYFIDKQMLRDFVTTRPALKELLKEALNMERNNRYQPLQNHAKM
notes: residues printed before S53 in the construct's description (GPHMS53-M338); not from L1ORF1p; also called remainder of human L1ORF1p; truncated trimer; not shown: His6, N-terminal, cleaved

Experiments:
[1] = target: hL1ORF1p-Δcons (non-conserved N-terminal portion of human L1ORF1p, GPHM1-E103) (human) (UniProt Q9UN81); assay: SEC-MALS; hL1ORF1p-Δcons at 5.2 mM, Superdex 75 (10/300 GL), gel filtration buffer; monomer to dimer
[2] = target: the molecule itself; assay: SEC-MALS; Superdex 200 (10/300 GL), gel filtration buffer (10 mM HEPES pH 7.5, 300 mM NaCl, 1 mM DTT)

Molecule | stoichiometry N [1] | stoichiometry N [2]
hL1ORF1p-Δcons (non-conserved N-terminal portion of human L1ORF1p, GPHM1-E103) (from UniProt Q9UN81 1-103) (domain or fragment) | 2 | –
B1 | – | 3
B2 | – | 3
